The record followed here is paper PMC3711453.

Data set [1] concerns the target T1, His6-MTSF1 (lacking first 146 aa) (Arabidopsis thaliana? (Arabidopsis, …, UniProt Q9M9X9 147-987)).
T1 sequence: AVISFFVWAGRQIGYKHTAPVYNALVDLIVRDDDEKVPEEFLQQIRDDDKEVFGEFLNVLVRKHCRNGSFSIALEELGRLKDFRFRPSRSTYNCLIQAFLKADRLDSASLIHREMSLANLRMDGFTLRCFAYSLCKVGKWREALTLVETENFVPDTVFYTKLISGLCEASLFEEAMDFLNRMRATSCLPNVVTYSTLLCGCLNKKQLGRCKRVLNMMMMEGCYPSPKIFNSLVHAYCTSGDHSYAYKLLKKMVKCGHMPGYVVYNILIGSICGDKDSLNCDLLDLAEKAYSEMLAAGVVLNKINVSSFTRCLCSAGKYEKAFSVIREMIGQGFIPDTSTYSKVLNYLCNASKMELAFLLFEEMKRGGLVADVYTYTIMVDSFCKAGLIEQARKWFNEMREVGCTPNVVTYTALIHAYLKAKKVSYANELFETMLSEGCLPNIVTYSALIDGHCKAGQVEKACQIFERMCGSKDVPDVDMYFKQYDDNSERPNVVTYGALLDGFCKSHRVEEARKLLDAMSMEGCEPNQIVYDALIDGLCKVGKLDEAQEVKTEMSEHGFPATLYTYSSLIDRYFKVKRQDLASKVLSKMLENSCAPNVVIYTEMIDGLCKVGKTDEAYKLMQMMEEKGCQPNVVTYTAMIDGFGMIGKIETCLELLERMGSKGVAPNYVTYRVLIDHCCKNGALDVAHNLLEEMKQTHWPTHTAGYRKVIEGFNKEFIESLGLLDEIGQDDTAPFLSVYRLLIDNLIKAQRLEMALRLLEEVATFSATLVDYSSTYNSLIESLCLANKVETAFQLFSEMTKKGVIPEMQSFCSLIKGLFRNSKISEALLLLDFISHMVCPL
In words: EMSA.

In data set [2] the target is T1, His6-MTSF1 (lacking first 146 aa). In words: EMSA. This is another data set of the same source.

Like-named read-outs stand apart in the source and are kept apart here.

With CAACAUCUUAAUGUGUAUUUGAGGAUAUUU (ssRNA) [3'ND4-4 (30 nt downstream of nad4 mRNA 3' end)], the binding result in data set [1] is reported as “no binding”.
Consider GAGGAAUCAGCAAAGAAAAGAAAAACGGGU (ssRNA) [3'ND4-1 (entire nad4 3' UTR, 30 nt)], for which the binding result in data set [1] is on record as “binds”.
Regarding CAAAGAAAAGAAAAACGGGU (ssRNA) [3'ND4-3 (last 20 nt of nad4 3' UTR)], the binding result in data set [2] is reported as “binds”.
On to AACAUGGCAAAUUUCAUUGA (ssRNA) [3'ND4-2 (last 20 nt of nad4 coding sequence)], for which, in data set [1], the binding result is listed as “no binding”.
